Measured values published in US20120321591A1 (COVX TECHNOLOGIES IRELAND, published 2012).
Bridges are numbered along the chain shown (N, C = ends). Where no end group is shown, it is not given here. [ ]: non-standard residue; d: D form. Phe(4-NO2) = N[C@@H](Cc1ccc([N+](=O)[O-])cc1)C(=O)O; Phe(4-COOH) = N[C@@H](Cc1ccc(C(=O)O)cc1)C(=O)O; Bpa = N[C@@H](Cc1ccc(C(=O)c2ccccc2)cc1)C(=O)O; Hyp = O=C(O)[C@@H]1C[C@@H](O)CN1; 0P linker = not defined here; 4P linker = not defined here; ThA = not defined here

T1: human angiopoietin-2 protein (human, UniProt O15123 19-496)
T1 construct: also called Ang-2; Ang2
T1 sequence (looked up): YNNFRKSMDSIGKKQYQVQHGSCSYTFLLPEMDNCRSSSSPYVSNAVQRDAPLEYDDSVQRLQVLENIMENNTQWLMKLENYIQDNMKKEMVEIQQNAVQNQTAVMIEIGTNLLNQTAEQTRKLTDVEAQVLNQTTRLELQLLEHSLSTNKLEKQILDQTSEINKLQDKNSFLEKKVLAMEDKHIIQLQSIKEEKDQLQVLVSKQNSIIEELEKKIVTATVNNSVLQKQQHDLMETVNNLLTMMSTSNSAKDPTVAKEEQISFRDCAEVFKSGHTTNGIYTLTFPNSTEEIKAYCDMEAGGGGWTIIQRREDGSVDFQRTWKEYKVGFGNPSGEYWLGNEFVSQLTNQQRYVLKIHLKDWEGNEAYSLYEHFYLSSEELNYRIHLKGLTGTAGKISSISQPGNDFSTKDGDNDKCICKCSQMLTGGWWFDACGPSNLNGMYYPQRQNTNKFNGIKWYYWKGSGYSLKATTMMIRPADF

B1: Compound 4027, peptide plus linker (T) (peptide)
peptide: QKYQPLDELDK(0P linker)TLYDQFMLQQG-NH2
modifications: reading uncertain; also: N-terminal acyl cap, printed as QKY QPL DEL DK(0P)T LYD QFM LQQ G
notes: also called 4027 T
B2: Compound 4059, peptide plus linker (T) (peptide)
peptide: QRYQPLDELDKTLYDQFMLQQG-NH2
modifications: not fully specified (residue 11, N-terminus); printed as QRY QPL DEL DK(0P)T LYD QFM LQQ G; also: N-terminal acyl cap
notes: also called 4059 T
B3: Compound 4060, peptide plus linker (T) (peptide)
peptide: QHYQPLDELDKTLYDQFMLQQG-NH2
modifications: not fully specified (residue 11, N-terminus); printed as QHY QPL DEL DK(0P)T LYD QFM LQQ G; also: N-terminal acyl cap
notes: also called 4060 T
B4: Compound 4033, peptide plus linker (T) (peptide)
peptide: QK(Ac)YQPLDEK(0P linker)DETLYDQFMLQQG
modifications: reading uncertain; also: N-terminal acyl cap, C-terminal amino cap, printed as Q(Kac)Y QPL DEK(0P) DET LYD QFM LQQ G
notes: also called 4033 T
B5: Compound 4025, peptide plus linker (T) (peptide)
peptide: QNYQPLDELDK(4P linker)TLYDQFMLQQG-NH2
modifications: reading uncertain; also: N-terminal acyl cap, printed as QNY QPL DEL DK(4P)T LYD QFM LQQ G
notes: also called 4025 T
B6: Compound 4034, peptide plus linker (T) (peptide)
peptide: QXYQXLDELDKTLYDQFMLQQG
modifications: not fully specified; N-terminal acyl cap; C-terminal amino cap; Kac 2; D(HP) 5; 0P linker on K11
notes: also called 4034 T
B7: Compound 4045, peptide plus linker (T) (peptide)
peptide: QK(Ac)YQ[Hyp]LDE[ThA]DK(0P linker)TL[Phe(4-NO2)]DQFMLQQG-NH2
modifications: not fully specified; reading uncertain; also: N-terminal acyl cap, acyl not given here
notes: also called 4045 T
B8: Compound 4046, peptide plus linker (T) (peptide)
peptide: QK(Ac)YQ[Hyp]LDE[ThA]DK(0P linker)TL[Bpa]DQFMLQQG-NH2
modifications: not fully specified; reading uncertain; also: N-terminal acyl cap, acyl not given here
B9: Compound 4047, peptide plus linker (T) (peptide)
peptide: QK(Ac)YQ[Hyp]LDE[ThA]DK(0P linker)TL[Phe(4-COOH)]DQFMLQQG-NH2
modifications: not fully specified; reading uncertain; also: N-terminal acyl cap, acyl not given here
notes: also called 4047 T
B10: Compound 4048, peptide plus linker (T) (peptide)
peptide: QK(Ac)YQPLDEK(Ac)DK(0P linker)TL[Phe(4-NO2)]DQFMLQQG-NH2
modifications: reading uncertain; also: N-terminal acyl cap, acyl not given here, printed as Q(Kac)Y QPL DE(Kac) DK(0P)T L(NO2)FD QFM LQQ G
notes: also called 4048 T
B11: Compound 4055, peptide plus linker (T) (peptide)
peptide: QXYQPLDELDXTLYDQFMLQQG
modifications: not fully specified; N-terminal acyl cap; C-terminal amino cap; Kac 2; 0P linker on Dap 11
notes: also called 4055 T
B12: Compound 4056, peptide plus linker (T) (peptide)
peptide: QNYQPLDELDKTL[Bpa]DQFMLQQG-NH2
modifications: not fully specified (residue 11, N-terminus); also: N-terminal acyl cap, acyl not given here
notes: also called 4056 T
B13: Compound 4057, peptide plus linker (T) (peptide)
peptide: QNYQPLDELDKTL[Phe(4-COOH)]DQFMLQQG-NH2
modifications: not fully specified (residue 11, N-terminus); also: N-terminal acyl cap, acyl not given here
notes: also called 4057 T
B14: Compound 4061, peptide plus linker (T) (peptide)
peptide: QXYQPLDELDKTLYDQFMLQQG
modifications: not fully specified; N-terminal acyl cap; C-terminal amino cap; Nick 2; 0P linker on K11
notes: also called 4061 T

Biological target: T1, human angiopoietin-2 protein
Assay: reverse competition ELISA presumed: Ang-2 binding to coated Tie-2-Fc; peptide alone
Description: Plates were washed three times with washing buffer (0.1% Tween 20, PBS, pH 7.4) and blocked with Superblock, 150 μl/well at RT for 1 hour. Plates were washed three times. […] Plates were washed 3 times, and 50 W of streptavidin HRP (1:200 dilution in Superblock) was added at RT for 20 minutes. Plates were washed 3 times, and […] (25 μl TMB+25 μl H₂O₂) substrate solution was added and incubated for 20-30 minutes. Color development was stopped with 25 μl of 2 M H₂SO₄. OD450 nm with a correction wavelength of 540 nm was measured.

In order of rising IC50:
1. QXYQPLDELDKTLYDQFMLQQG (N-terminal acyl cap; C-terminal amino cap; Kac 2) [Compound 4022]  14.4 nM
2. QKYQPLDELDKTLYDQFMLQQG-NH2 (also: N-terminal acyl cap) [Compound 4021]  36.4 nM

Biological target: T1, human angiopoietin-2 protein
Assay: competitive ELISA: Tie-2-Fc binding to coated Ang-2; T
Description: (§1) Plates were washed three times with washing buffer (0.1% Tween 20, PBS, pH 7.4) and blocked with Superblock (Scytek), […] at room temperature (“RT”) for 1 hour. […] Plates were washed 3 times with washing buffer. […] Following incubation, 50 ul of 1:5,000 dilution of goat anti-mouse IgG-HRP in Superblock was then added and incubated at RT for one hour. After washing 3 times, […] was added, and incubated for 3-5 minutes. Color development was monitored and stopped with 25 μl of 2 M H₂SO₄. OD450 nm with a correction wavelength of 540 nm was measured.

In order of rising IC50:
1. XQXYQPLDELDKTLYDQFMLQQG (PyC at N-terminus; C-terminal amino cap; Kac 2; 0P linker on K11, also called 4051 T) [Compound 4051, peptide plus linker (T)]  14.3 nM
2. B7  24.7 nM
3. XQXYQPLDELDKTLYDQFMLQQG (DCB at N-terminus; C-terminal amino cap; Kac 2; 0P linker on K11, also called 4049 T) [Compound 4049, peptide plus linker (T)]  28.4 nM
4. B1  29 nM
5. QKYQPLDELDKTLYDQFMLQQG-NH2 (not fully specified (N-terminus), also called 4026 T) [Compound 4026, peptide plus linker (T)]  32.3 nM
6. XQXYQPLDELDKTLYDQFMLQQG (DFB at N-terminus; C-terminal amino cap; Kac 2; 0P linker on K11) [Compound 4050, peptide plus linker (T)]  33 nM
7. QXYQPLDELDKTLFDQFMLQQG (N-terminal acyl cap; C-terminal amino cap; Kac 2; 0P linker on K11, also called 4044 T) [Compound 4044, peptide plus linker (T)]  36.9 nM
8. B9  43.3 nM
9. B10  82.4 nM
10. B8  82.7 nM
11. QXYQPLDELDKTLYDQFMLQQG (N-terminal acyl cap; C-terminal amino cap; Kac 2; 0P linker on K11, also called 4029 T) [Compound 4029, peptide plus linker (T)]  83.3 nM
12. B14  83.9 nM
13. B12  92.2 nM
14. B13  110 nM
15. QXYQXLDELDKTLYDQFMLQQG (N-terminal acyl cap; C-terminal amino cap; Kac 2; HP 5; 0P linker on K11, also called 4035 T) [Compound 4035, peptide plus linker (T)]  121 nM
16. XQXYQPLDELDKTLYDQFMLQQG (Amido 2-PEG at N-terminus; C-terminal amino cap; Kac 2; 0P linker on K11, also called 4052 T) [Compound 4052, peptide plus linker (T)]  134 nM
17. B2  177 nM
18. QXYQPLDELDKTLYDQFMLQQG (N-terminal acyl cap; C-terminal amino cap; Kac 2; 4P linker on K11, also called 4024 T) [Compound 4024, peptide plus linker (T)]  207 nM
19. B3  214 nM
20. B6  224 nM
21. QXYQPLDEKDXTLYDQFMLQQG (N-terminal acyl cap; C-terminal amino cap; Kac 2; 0P linker on K9; Kac 11, also called 4030 T) [Compound 4030, peptide plus linker (T)]  279 nM
22. QXYQPLDELDXTLYDQFMLQQG (N-terminal acyl cap; C-terminal amino cap; Kac 2; 0P linker on Dab 11, also called 4054 T) [Compound 4054, peptide plus linker (T)]  292 nM
23. B5  300 nM
24. B4  370 nM
25. QK(Ac)YQPLDEK(Ac)DKTL[Phe(4-COOH)]DQFMLQQG-NH2 (not fully specified (residue 11, N-terminus), also called 4062 T) [Compound 4062, peptide plus linker (T)]  499 nM
26. B11  598 nM
27. QXYQPLDEIDKTLYDQFMLQQG (N-terminal acyl cap; C-terminal amino cap; Kac 2; 0P linker on K11, also called 4037 T) [Compound 4037, peptide plus linker (T)]  1270 nM
28. QXYQPLDELDKTXYDQFMLQQG (N-terminal acyl cap; C-terminal amino cap; Kac 2; 0P linker on K11; Nva 13, also called 4041 T) [Compound 4041, peptide plus linker (T)]  1340 nM
29. QXYQPLDELDKTXYDQFMLQQG (N-terminal acyl cap; C-terminal amino cap; Kac 2; 0P linker on K11; HL 13, also called 4042 T) [Compound 4042, peptide plus linker (T)]  1340 nM
30. QXYQPLDELDKTIYDQFMLQQG (N-terminal acyl cap; C-terminal amino cap; Kac 2; 0P linker on K11, also called 4036 T) [Compound 4036, peptide plus linker (T)]  2410 nM
31. QXYQPLDELDKTXYDQFMLQQG (N-terminal acyl cap; C-terminal amino cap; Kac 2; 0P linker on K11; HF 13, also called 4039 T) [Compound 4039, peptide plus linker (T)]  4890 nM

Biological target: T1, human angiopoietin-2 protein
Assay: competitive ELISA: Tie-2-Fc binding to coated Ang-2; peptide alone
Description: as §1

In order of falling IC50:
1. QXYQPLDELDKTLYDQFMLQQG (N-terminal acyl cap; C-terminal amino cap; Kac 2) [Compound 4022]  41.9 nM
2. QNYQPLDELDKTLYDQFMLQQG-NH2 (also: N-terminal acyl cap) [Compound 4023]  27.8 nM
3. QKYQPLDELDKTLYDQFMLQQG-NH2 (also: N-terminal acyl cap) [Compound 4021]  25.8 nM

Biological target: T2, recombinant human VEGF165 (human, UniProt P15692-4 27-191)
T2 construct: also called rhVEGF165
Assay: competition ELISA: VEGF165 binding to coated VEGFR2/Fc; normalized value

T2 sequence (P15692 other isoform, or with tags, fused parts or gaps limits assumed): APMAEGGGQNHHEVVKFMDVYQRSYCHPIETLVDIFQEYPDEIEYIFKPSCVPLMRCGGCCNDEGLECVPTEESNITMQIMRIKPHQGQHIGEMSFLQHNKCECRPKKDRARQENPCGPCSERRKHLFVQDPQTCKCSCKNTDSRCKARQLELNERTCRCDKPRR

In order of falling IC50:
1. Ac-VEPNCDIHVMWVWECFERLYGGW-NH2 (disulfide 5-15 (inferred)) [[VEGF-Peptide] SEQ ID NO:35]  325 nM
2. Ac-VEPNCDIHVMWVWVCFERLFREA-NH2 (disulfide 5-15 (inferred)) [[VEGF-Peptide] SEQ ID NO:36]  172 nM
3. Ac-VEPNCDIHVMWVWECFERLYREL-NH2 (disulfide 5-15 (inferred)) [[VEGF-Peptide] SEQ ID NO:39]  70 nM
4. Ac-VEPNCDIHVMWVWVCFERLFKEA-NH2 (disulfide 5-15 (inferred)) [[VEGF-Peptide] SEQ ID NO:37]  59 nM
